From paper PMC3046773 (Life sciences, 2010)

Biological target: T1, PGIS–CFP (human, UniProt Q16647 1-500)
T1 sequence (looked up): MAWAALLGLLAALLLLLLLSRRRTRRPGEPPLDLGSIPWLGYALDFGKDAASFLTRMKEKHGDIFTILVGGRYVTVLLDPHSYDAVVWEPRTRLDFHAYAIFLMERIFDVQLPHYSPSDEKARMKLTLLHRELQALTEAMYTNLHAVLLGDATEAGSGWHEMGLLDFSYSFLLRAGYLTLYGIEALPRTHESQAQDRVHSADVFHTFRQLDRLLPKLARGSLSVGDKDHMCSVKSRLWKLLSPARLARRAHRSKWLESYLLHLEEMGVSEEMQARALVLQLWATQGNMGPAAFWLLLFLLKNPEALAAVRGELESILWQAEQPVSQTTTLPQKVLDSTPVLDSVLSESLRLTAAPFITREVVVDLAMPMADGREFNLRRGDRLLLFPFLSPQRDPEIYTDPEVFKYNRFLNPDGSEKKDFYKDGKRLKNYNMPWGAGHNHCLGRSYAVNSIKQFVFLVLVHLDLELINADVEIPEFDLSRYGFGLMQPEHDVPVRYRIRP
Experiment: FRET or BRET

- FRET intensity relative to COX-1-RFP with PGIS–CFP: 2 fold
B1: COX-2-RFP (enzyme, human, UniProt P35354 18-604, looked up)
chain: ANPCCSHPCQNRGVCMSVGFDQYKCDCTRTGFYGENCSTPEFLTRIKLFLKPTPNTVHYILTHFKGFWNVVNNIPFLRNAIMSYVLTSRSHLIDSPPTYNADYGYKSWEAFSNLSYYTRALPPVPDDCPTPLGVKGKKQLPDSNEIVEKLLLRRKFIPDPQGSNMMFAFFAQHFTHQFFKTDHKRGPAFTNGLGHGVDLNHIYGETLARQRKLRLFKDGKMKYQIIDGEMYPPTVKDTQAEMIYPPQVPEHLRFAVGQEVFGLVPGLMMYATIWLREHNRVCDVLKQEHPEWGDEQLFQTSRLILIGETIKIVIEDYVQHLSGYHFKLKFDPELLFNKQFQYQNRIAAEFNTLYHWHPLLPDTFQIHDQKYNYQQFIYNNSILLEHGITQFVESFTRQIAGRVAGGRNVPPAVQKVSQASIDQSRQMKYQSFNEYRKRFMLKPYESFEELTGEKEMSAELEALYGDIDAVELYPALLVEKPRPDAIFGETMVEVGAPFSLKGLMGNVICSPAYWKPSTFGGEVGFQIINTASIQSLICNNVKGCPFTSFSVPDPELIKTVTINASSSRSGLDDINPTVLLKERSTEL
